Like-named read-outs stand apart in the source and are kept apart here. Blank lines part the entries; values can stand above or below the substance they belong to.
What was measured:
[1] = molecular target: Filamentous actin (F-actin) (rabbit) (UniProt P68135); assay: co-sedimentation; 1–30 μM polymerized actin incubated with 10 μM MYPN Ig3, Ig4 or Ig3–4 domain for 1 h in 100 μL, 150 000×g for 30 min; SDS-PAGE of supernatants and pellets, densitometry; F-buffer (Tris, KCl, MgCl2, DTT, pH 8.0)
[2] = molecular target: F-actin (Oryctolagus cuniculus) (UniProt P68135); settings: cited from earlier work
[3] = molecular target: F-actin (Oryctolagus cuniculus) (UniProt P68135); settings: cited from earlier work; remark: listed apart in the source

Kd [1]: 7.6 µM
Substance: Myopalladin (MYPN) Ig3 domain (domain or fragment)

Substance: PALLD Ig3 (from UniProt Q9ET54)
Kd [2]: 70 µM

Substance: PALLD Ig3-4 (from UniProt Q9ET54)
Kd [3]: 9 µM

Reference: PMC7015241
